Results on one substance are retold here after patent US20170313756A1.

Test in all cases: 125I-NDP-MSH competition, HEK293 membranes
The target of assay [1] is melanocortin 1 receptor (MC1R) (UniProt Q01726).
Assay [2] shares this target. The source holds these as a separate data set.
Assay [3] concerns the target melanocortin 5 receptor (MC5R) (UniProt P33032).
The target in assay [4] is melanocortin 1 receptor (MC1R) (UniProt Q01726). The source holds these as a separate data set.

Read-outs that look alike come from different tables or passages of the source.

melanocortin 1 receptor (MC1R), sequence (Q01726 whole entry): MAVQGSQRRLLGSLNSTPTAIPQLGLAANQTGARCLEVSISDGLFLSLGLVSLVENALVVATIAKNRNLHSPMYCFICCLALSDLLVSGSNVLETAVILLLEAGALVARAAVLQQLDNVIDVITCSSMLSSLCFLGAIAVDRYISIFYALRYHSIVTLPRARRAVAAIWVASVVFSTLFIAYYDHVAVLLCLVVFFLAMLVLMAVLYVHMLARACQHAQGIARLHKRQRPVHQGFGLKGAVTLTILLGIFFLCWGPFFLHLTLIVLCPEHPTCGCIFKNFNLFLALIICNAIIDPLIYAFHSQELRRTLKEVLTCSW
melanocortin 5 receptor (MC5R), sequence (P33032 whole entry): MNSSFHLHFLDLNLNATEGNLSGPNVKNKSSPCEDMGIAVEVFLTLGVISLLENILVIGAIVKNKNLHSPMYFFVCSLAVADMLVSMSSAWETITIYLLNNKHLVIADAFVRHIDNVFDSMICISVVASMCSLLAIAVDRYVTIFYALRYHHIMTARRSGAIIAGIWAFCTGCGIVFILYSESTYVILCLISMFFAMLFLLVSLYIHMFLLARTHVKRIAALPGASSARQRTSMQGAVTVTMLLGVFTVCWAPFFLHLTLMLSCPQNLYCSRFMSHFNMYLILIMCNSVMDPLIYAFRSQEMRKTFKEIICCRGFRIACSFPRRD

Regarding retro-inverso α-MSH (peptide), the inhibition constant Ki in assay [1] came out at 4.1 nM; in assay [2], 4.6 nM; in assay [3] it was 25000 nM; in assay [4] it was 4 nM.

As a reminder, the Ki is the equilibrium dissociation constant of an inhibitor or competing ligand from its target.
